Assay results published in patent publication US20240317847A1 (Bayer, published 2024).

T1: human IL-11 (Invigate, e.g., lot #C121021-19) (human, UniProt P20809 22-199)
T1 construct: Bought protein; also called hIL-11; hIL11
T1 sequence: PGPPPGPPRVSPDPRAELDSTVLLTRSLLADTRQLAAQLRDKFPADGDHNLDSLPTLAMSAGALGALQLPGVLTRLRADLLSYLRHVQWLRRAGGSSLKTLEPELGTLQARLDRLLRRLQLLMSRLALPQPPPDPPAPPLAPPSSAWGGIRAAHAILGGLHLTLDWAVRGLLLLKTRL

T2: murine IL-11 (Invigate, e.g., lot #C210819-09) (mouse, UniProt P47873 22-199)
T2 construct: Bought protein; biotinylated where captured on streptavidin plates; also called mIL-11; mIL11
T2 sequence: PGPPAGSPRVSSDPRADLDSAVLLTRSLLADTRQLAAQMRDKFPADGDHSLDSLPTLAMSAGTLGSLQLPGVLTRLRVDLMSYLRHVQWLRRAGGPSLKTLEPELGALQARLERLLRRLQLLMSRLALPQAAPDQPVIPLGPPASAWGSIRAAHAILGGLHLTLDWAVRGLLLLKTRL

T3: human IL2Ra (Peprotech, Germany, #200-02RC) (human, UniProt P01589 22-240)
T3 construct: Coated on the ELISA plate; also called hIL2Ra; IL-2 receptor alpha
T3 sequence (looked up): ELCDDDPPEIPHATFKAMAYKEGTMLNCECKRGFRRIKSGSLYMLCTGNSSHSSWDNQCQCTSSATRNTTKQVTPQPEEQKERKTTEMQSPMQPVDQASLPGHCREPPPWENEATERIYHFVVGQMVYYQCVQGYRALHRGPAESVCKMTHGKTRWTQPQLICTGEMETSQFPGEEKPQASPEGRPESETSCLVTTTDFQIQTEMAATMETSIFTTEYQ

T4: human IL-11 (human, UniProt P20809 22-199)
T4 sequence: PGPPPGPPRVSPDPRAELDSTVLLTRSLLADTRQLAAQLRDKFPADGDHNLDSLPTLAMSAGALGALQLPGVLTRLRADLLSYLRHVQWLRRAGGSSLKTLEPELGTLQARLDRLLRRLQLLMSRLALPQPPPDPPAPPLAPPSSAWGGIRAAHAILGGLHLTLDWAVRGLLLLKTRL

T5: murine IL-11 (mouse, UniProt P47873 22-199)
T5 sequence: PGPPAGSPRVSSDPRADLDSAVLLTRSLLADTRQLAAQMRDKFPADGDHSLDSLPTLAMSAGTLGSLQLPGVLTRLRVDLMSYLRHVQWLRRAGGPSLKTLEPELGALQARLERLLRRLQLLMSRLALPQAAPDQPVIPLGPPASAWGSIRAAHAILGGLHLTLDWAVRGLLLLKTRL


How the values were obtained:
[1] = molecular target: T1, human IL-11 (Invigate, e.g., lot …); experiment: Di-complex ELISA: biotinylated human IL-11 on streptavidin plate, antibody titrated against 2 nM canine IL11RA-human-Fc (competitor)
Description: In the Di-complex ELISA format anti IL-11 antibodies are tested for the ability to interfere with the formation of complexes consisting of immobilized murine IL-11 (Invigate, e.g., lot #C210819-09) or human IL-11 (Invigate, e.g., lot #C121021-19), and murine IL11RA-Fc fusion proteins or canine IL11RA-human-Fc fusion protein (FIG. 17a, b).
The assay is performed using streptavidin coated microtiter plates (Greiner bio-one, #781997). In a first step, 10 nM biotinylated mouse IL-11 (Invigate, Germany, e.g., lot #C210819-09) or human IL-11 (Invigate, Germany, e.g., lot #C121021-19) is coated in 25 μl PBS on the plate at 4° C. overnight. Next day, the plate is washed three times with 50 μl PBST and then blocked with 50 μl SmartBlock (Candor, #113125) for one hour at room temperature (RT). After additional three washes with PBST, 25 μl of a mixture of the murine anti IL-11 antibody and recombinant canine IL11RA-Fc fusion protein (Sino Biological, #70078-D02H) in PBS-T, 10% Smartblock are added simultaneously to the plate and incubated for one hour at RT. […] After three additional washes with PBS-T, 25 μl anti-human-POD (Sigma, #A0170) in PBS-T, 10% Smartblock is added and incubated for 1 hour at RT. After a final three washes with PBS-T, 25 μl AmplexRed (Fisher Scientific, A12222), 1/1000 in PBS, 0,003% H₂O₂, is added as substrate and incubated for 15 min at RT in the dark. Then, the fluorescence is measured with a plate reader at 535/595 nm. Signals from dose responses were used to calculate IC50 values (GraphPad Prism). Efficacy was calculated as [(signal measured at lowest antibody concentration−signal measured at the highest antibody concentration)×100] divided by (signal measured at lowest antibody concentration−signal measured in the absence of IL11Ra).

[2] = molecular target: T2, murine IL-11 (Invigate, e.g., lot …); experiment: SPR, Biacore T200, 25 C; antibody captured via anti-mouse Fc, IL-11 as analyte, 1:1 Langmuir fit
Description: Antibodies were captured via anti-mouse Fc IgGs (“Mouse antibody capture kit, Order No. BR100383, Cytiva) covalently amine coupled to a Series S CM5 sensor chip (Cytiva). The amine coupling was carried out according to the manufacturer's instructions using 1-ethyl-3-(3-dimethylaminopropyl) carbodiimide hydrochloride (EDC), N-hydroxysuccinimide (NHS) and ethanolamine HCl, pH 8.5 (“Amine Coupling Kit” BR-1000-50, Cytiva.). Human IL-11 (Invigate, e.g., lot #C121021-19), and murine IL-11 (Invigate, e.g., lot #C210819-09) were used as analytes. […] Based on that experiment an IL-11 concentration range was chosen to optimally determine kinetics and affinity of anti-IL-11 antibodies in multicycle kinetics mode. The sensor surface was regenerated with glycine pH 1.7 after each antigen injection. Obtained sensorgrams were double referenced (subtraction of reference flow cell signal and buffer injection) and were fitted to a 1:1 Langmuir binding model to derive kinetic data using the Biacore T200 Evaluation software or the Biacore Insight software.

[3] = molecular target: T3, human IL2Ra (Peprotech, Germany, …); experiment: direct binding ELISA on coated IL2Ra
[4] = molecular target: T1, human IL-11 (Invigate, e.g., lot …); experiment: cell-based or functional assay
[5] = molecular target: T2, murine IL-11 (Invigate, e.g., lot …); experiment: cell-based or functional assay
human IL-11 = molecular target: T4, human IL-11; experiment: cell-based or functional assay
murine IL-11 = molecular target: T5, murine IL-11; experiment: cell-based or functional assay

Binder	Efficacy (%) [1] [%]	Kd [2] [nM]	binding result [3]	Efficacy (%), Stat3 reporter gene assay, human IL11RA, 0.78 nM hIL-11 [4] [%]	IC50 [M], Stat3 reporter gene assay, HEK 293F transfected with human IL11RA, 0.78 nM hIL-11 [4] [M]	Efficacy (%), Stat3 reporter gene assay, mouse Il11ra, 3.13 nM mIL-11 [5] [%]	IC50 [M], Stat3 reporter gene assay, HEK 293F transfected with mouse Il11ra, 3.13 nM mIL-11 [5] [M]	IC50 [1] [nM]	Efficacy (%), Stat3 reporter gene assay (human IL-11) [%]	IC50, Stat3 reporter gene assay (human IL-11) [nM]	Efficacy (%), Stat3 reporter gene assay (murine IL-11) [%]	IC50, Stat3 reporter gene assay (murine IL-11) [nM]
TPP-18087 (antibody, mouse IgG1, V domains shown, mIgG1, Lambda) VH: EVQLLESGGGLVQPGGSLRLSCAASGFTFSHYDMNWLRQAPGKGLEWVGVISYDGSNKFYADFVKGRFTISRDNSKNTLYLQMNSLRAEDTAVYYCARTPGSHFDYWGQGTLVTVSS VL: QSVLTQPPSASGTPGQRVTISCSGSSSNIGNNAVNWYQQLPGTAPKLLIYYDDLLPSGVPDRFSGSKSGTSASLAISGLRSEDEADYYCSAWDDSLNGVVFGGGTKLTVLG [TPP-18087, listing 1 of 2 here]	10.7	42	no binding (tested: 3.3E-7 [M] antibody)	51.5	1.07e-07	49	3.31e-07					
TPP-19528 (antibody, mouse IgG1, V domains shown, mIgG1, Lambda) VH: EVQLLESGGGLVQPGGSLRLSCAASGFTFSIYAMSWVRQAPGKGLEWVSSISDTGDRTYYADSVKGRFTISRDNSKNTLYLQMNSLRAEDTAVYYCARSNWGSLDYWGQGTLVTVSS VL: QSVLTQPPSASGTPGQRVTISCSGSSSNIGSNYVYWYQQLPGTAPKLLIYYDDLLPSGVPDRFSGSKSGTSASLAISGLRSEDEADYYCAAWDDSLSGRVFGGGTKLTVLG	57	9	no binding (tested: 3.3E-7 [M] antibody)	65.6	1.5e-08	80.7	9.6e-09	3				
TPP-18087 (antibody, mouse IgG1, V domains shown, mIgG1, Lambda) VH: EVQLLESGGGLVQPGGSLRLSCAASGFTFSHYDMNWLRQAPGKGLEWVGVISYDGSNKFYADFVKGRFTISRDNSKNTLYLQMNSLRAEDTAVYYCARTPGSHFDYWGQGTLVTVSS VL: QSVLTQPPSASGTPGQRVTISCSGSSSNIGNNAVNWYQQLPGTAPKLLIYYDDLLPSGVPDRFSGSKSGTSASLAISGLRSEDEADYYCSAWDDSLNGVVFGGGTKLTVLG [TPP-18087, listing 2 of 2 here]									51.5	110	49	330
TPP-18068 (antibody, mouse IgG1, mIgG1, Lambda) heavy: EVQLLESGGGLVQPGGSLRLSCAASGFTFSSYGMHWVRQAPGKGLEWVSVISYDGSYKYYADSVKGRFTISRDNSKNTLYLQMNSLRAEDTAVYYCAAGVPDYWGQGTLVTVSSAKTTPPSVYPLAPGSAAQTNSMVTLGCLVKGYFPEPVTVTWNSGSLSSGVHTFPAVLQSDLYTLSSSVTVPSSTWPSETVTCNVAHPASSTKVDKKIVPRDCGCKPCICTVPEVSSVFIFPPKPKDVLTITLTPKVTCVVVDISKDDPEVQFSWFVDDVEVHTAQTQPREEQFNSTFRSVSELPIMHQDWLNGKEFKCRVNSAAFPAPIEKTISKTKGRPKAPQVYTIPPPKEQMAKDKVSLTCMITDFFPEDITVEWQWNGQPAENYKNTQPIMDTDGSYFVYSKLNVQKSNWEAGNTFTCSVLHEGLHNHHTEKSLSHSPGK light: QSVLTQPPSASGTPGQRVTISCTGSSSNIGAGYDVHWYQQLPGTAPKLLIYSNNERPSGVPDRFSGSKSGTSASLAISGLRSEDEADYYCAAWDDSLNGPVFGGGTKLTVLGQPKSSPSVTLFPPSSEELETNKATLVCTITDFYPGVVTVDWKVDGTPVTQGMETTQPSKQSNNKYMASSYLTLTARAWERHSSYSCQVTHEGHTVEKSLSRADCS									20.7	4.8	84.1	2.7
